Laboratory results as given in the supplement of paper PMC12455559.
± gives the standard deviation of the averaged measurements.

Tests used:
[1] = PET hydrolysis, aromatic products released after 48 h (umol product/mg enzyme); higher = more PET depolymerization activity
In short: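 Amorphous PET film or crystalline PET powder (3.5 mg) in 450 μL of 50 mM NaCitrate (pH 4.5, 5.5), 50 mM NaPhosphate (pH 6.5, 7.5) or glycine (pH 8.5) received 5 μg (50 μL) of candidate enzyme. That enzyme was purified on nickel beads and freed of its tag by SUMO cleavage. After 48 h at 40 or 60 °C in sealed plates without shaking, absorbance of the supernatant at 260 and 280 nm was read against buffer blanks. PET hydrolysis activity is this aromatic product expressed per mg enzyme.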

[2] = purified protein yield per well (BCA); higher = higher soluble expression
In short: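 On an OT-2 robot, lysed cells were processed by binding protein to Ni-charged magnetic beads and releasing it with SUMO protease. Expression took place in E. coli C41(DE3), in 2 mL autoinduction cultures with 100 µg/mL kanamycin, for 2 h at 37 °C followed by 40 h at 18 °C. The Pierce Rapid Gold BCA kit was used to quantify purified protein yield in each well, with values under 25 ug (0.1 mg/mL) below the detection threshold.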

[3] = melting temperature (DSF); higher = more thermostable
In short: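 Enzymes made in E. coli C41(DE3) were nickel-bead purified and cut free with SUMO protease before testing. Differential scanning fluorimetry gave each melting temperature. For this, 5 μL 5X Sypro Orange was added to 45 μL enzyme (0 to 0.3 mg/mL) in sealed PCR plates, and a Bio-Rad CFX96 read fluorescence from 25 °C over 250 cycles of 0.3 °C each, ramping at 0.3 °C/s.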

[4] = substrate: cryPow, 40 °C, pH 5.5
[5] = substrate: cryPow, 40 °C, pH 6.5
[6] = substrate: cryPow, 40 °C, pH 7.5
[7] = substrate: cryPow, 40 °C, pH 8.5
[8] = substrate: cryPow, 40 °C, pH 4.5
[9] = substrate: cryPow, 60 °C, pH 5.5
[10] = substrate: cryPow, 60 °C, pH 6.5
[11] = substrate: cryPow, 60 °C, pH 7.5
[12] = substrate: cryPow, 60 °C, pH 8.5
[13] = substrate: aFilm, 40 °C, pH 5.5
[14] = substrate: aFilm, 40 °C, pH 6.5
[15] = substrate: aFilm, 40 °C, pH 7.5
[16] = substrate: aFilm, 60 °C, pH 5.5
[17] = substrate: aFilm, 60 °C, pH 6.5
[18] = substrate: aFilm, 60 °C, pH 7.5

Sequence	PET hydrolysis [1, 4]	PET hydrolysis [1, 5]	PET hydrolysis [1, 6]	PET hydrolysis [1, 7]	purified protein yield per well [2] [µg]	melting temperature [3] [C]	PET hydrolysis [1, 8]	PET hydrolysis [1, 9]	PET hydrolysis [1, 10]	PET hydrolysis [1, 11]	PET hydrolysis [1, 12]	PET hydrolysis [1, 13]	PET hydrolysis [1, 14]	PET hydrolysis [1, 15]	PET hydrolysis ([1]; substrate: aFilm, 40 °C, pH 8.5)	PET hydrolysis [1, 16]	PET hydrolysis [1, 17]	PET hydrolysis [1, 18]	PET hydrolysis ([1]; substrate: aFilm, 60 °C, pH 8.5)	PET hydrolysis ([1]; substrate: aFilm, 40 °C, pH 4.5)	PET hydrolysis ([1]; substrate: aFilm, 60 °C, pH 4.5)	PET hydrolysis ([1]; substrate: cryPow, 60 °C, pH 4.5)
AIEHRRGPAPSEQSVLAANGPFSHSTFAVSDAASAKFGKGTIYYPNDTSQGTFGGVAISPGYTSTEPHIAWLGTRLAAHGFVTITITTNSLYDNPTERGQQLLAALDYLANNAPLAIRQRLDTSRMGVVGHSMGGGGSLYAVWNRPALKAAVPLAPYHTIKNWSGIKTPTMIIGGSADGVAPVEEHSERFYSSMTYARERAYAELEGANHSGSFLFEDHPIIGKFTVAWLKRFIDGDTRYDQFLCPPPTGAYLTEYRASCPHA [DP006]	< 3	< 3	< 3	5	28	46.9	–	–	–	–	–	–	–	–	–	–	–	–	–	–	–	–
ALNPYQRGPDPTDALLEAPRGPFATASTTVSRLSVSGFGGGVIYYPTDTSQGTFGGIAISPGYTASWSSLDWLGPRIASHGFVVIGIDTLSRYDQPASRGRQLLAALDYLTQRSSVRGRVDASRLAVAGHSMGGGGSLEAADSRPSLQAAVPLAPWHTTKNWSGVRVPTMIIGGESDSVAPVSTHSELFYASIPASSEKAYLELNGASHFFPNTTNTTMAKSMVSWLKRFVDDDVRYDPFLCPGPDGSAVEEYRQTCPLS [TEP140]	< 3	< 3	4	–	36.5	51.4	< 3	–	–	–	–	–	–	–	–	–	–	–	–	–	–	–
ANPYERGPAPTKASIEATTGYFATAKVTVAKSSVSGFGGGTIYYPTSTTSGTFGAIALVPGFTNVQSAVAWLGPRVASQGFVVFIIDTNSVYDSPDSRGTQLLAALDYLTNTSTVKSRVDATRLGVMGYSMGGGGALSATKTRTSIKASVPMAPYHSTKTWTTVKTPTLIVTGQSDTTAPPASHGLAFYNSLSTSIDKAYMELKGAGHSAPTSANTTIAKYSISWFKRFIDDDTRYDQFLCPNPTDTTISSYKSTCNYS [DP082]	5	76	100	93	88	61.9	–	< 3	13	22	32	–	–	–	–	–	–	–	–	–	–	–
ANPYERGPDPTLASVEATSGTFAYASLSVSSGNGFGGGTIYYPTSTTDGTFAGIVTCPGFTNSGSSMAWFGKVLASQGFVTLVMNPKSNLDFPDARATQMLAALDWLTNSSSVKTRIDATRLGVLGQSMGGGATLKASKTRPSLKASFATAPYNSDKDWSTNTVPQFLFGMQNDTTAAVTNHALKFYNSLPATTPKIYAELRGAGHSTATSPNTSIRRYAVSFMKRNLDNDTRYSQFLCPGPTITSSSPLSAFMSNCLF [DP080]	< 3	2 ± 2.8	6	8 ± 1.4	291	63.1	–	< 3	< 3	< 3	< 3	< 3	< 3	< 3	1.5 ± 2.1	< 3	< 3	< 3	< 3	–	–	–
ANPYERGPNPTQALLEARSGPFSVSSERAWRLGSDGFGGGTIYYPRENNTYGAVAISPGYTGTQASVAWLGERIASHGFVVITIDTNTTLDQPDSRADQLEAALDHMVDGASSTVRSRIDRNRLAVMGHSMGGGGTLRLASQRPDLKAAIPLTPWHLNKSWSNVQVPTLIIGADLDTIAPVLTHAEPFYNSIPTSTRKAYLELDGATHFAPNITNSTIGMYSVAWLKRFVDEDTRYTQFLCPGPRTGLFSDVEEYRSTCPF [TEP014]	< 3	1.5 ± 2.1	4.5 ± 0.71	–	267	54.1	< 3	< 3	< 3	< 3	–	< 3	< 3	< 3	–	< 3	< 3	< 3	–	< 3	< 3	< 3
APDTVVGNPFARGPDPTKESIEAERGPFAVATEKVPGGKGFGGGTIHYPTDTSQGTFGAIAVAPGFTESESAIAWYGPRLASQGFVVITISTNGLWDLPASRADQLLAALRHVTDASQIKSRVDRDRLAVMGHSMGGGGSLIAARNNPALKATIPLTGWNPNTSFSDLKVPTFVVSAQNDFIAPDGSHSRPFYQSLPASLNKAYMRLAGVGHMAPVNPNVTIAKYSISWLKRFVDNDTRYSQFLCPLPTGDPKIAAYEGTCPLS [DP008]	4	20	40	50	67	50.5	–	< 3	9	9	9	–	–	–	–	–	–	–	–	–	–	–
APGPSAPCSNCTRGPNPTEASLKSDRGPFTTARFSVSGFLKGFGDSTVYYPTNTTGRMGAIAVIPGYLSYESSIEWWGPRLASHGFVVMTMNTSTIYDQPDSRATQLSKALDYLIAQSNTSSSPIYNKIDSTRLGAIGWSMGGGGSLKLSTQRSLNAIIPQAPWYSGSNSFNTIKTPALILACSADTVAPVSVHASPFYNRIPGSTPKAFLEIYGGSHFCANSGYPNEDLLGLYGIAWMKRFIDFDNRYSQFLCGPNHEGDFAISDYRQNCPY [ESM096]	< 3	6	22	–	33.4	52	< 3	–	–	–	–	–	–	–	–	–	–	–	–	–	–	–
APNAAIAAAPRVAPAANPYERGPAPTEESVKAEKGPFDIAQMPVPGGAGVFGGGTIWYPKDEAGPFGAVVVSPGFMTLEPLIQWYGRTLASHGFVVMTMATITPIDPPFSRGDELRSALDYLVTKSTVKDKIDPTRTALMGHSMGGGGTLDAASKLPDLKAAIPLAPWNLDYAPPAKIKAPTLIIGADNDPIAPTAAFADPFYAALTTQNRAYLKLKNAGHTFSFLGYNPTITKYTVSWLKRFVDNDTRYDQFLCPIPAASDTVAAYQGTCPLT [DP091]	< 3	< 3	< 3	< 3	32	53.8	–	–	–	–	–	–	–	–	–	–	–	–	–	–	–	–
